From patent US20230190950A1, “COMPOSITIONS AND METHODS FOR THE TREATMENT OF BACTERIAL INFECTIONS” (Cidara Therapeutics, Inc., priority 2017, published 2023) come the findings set out here.

In assay [1] the test system is Escherichia coli BW25113 4X-12 (COL-R). Put plainly: MIC assay (broth microdilution), Ec BW 4X-12 (COL-R). To be noted: assay media RPMI A. In kind it is cell-based. On the procedure: (§1) Bacterial strains were stored as glycerol stocks at −80° C. prior to culturing on cation-adjusted Mueller-Hinton agar (MHA; BD cat. no. 211438) at 37° C. Antibacterial activity was assessed against a panel consisting of Escherichia coli, Acinetobacter baumannii, Pseudomonas aeruginosa, and Klebsiella pneumoniae strains (see Table 2).
(§2) Briefly, stock solutions of all antibacterial agents were prepared fresh in appropriate solvents (i.e. PBS, pH 7.4, DMSO, DI, etc.). Stock concentrations were made at 50× the highest final assay concentration and serially diluted 2-fold, 8 or 12 times in a 96-well PCR plate (VWR cat. no. 83007-374). Bacterial cell suspensions generated from MHA plate cultures were prepared in 0.85% saline and adjusted to ˜0.1 OD600 nm. Next, cell suspensions were diluted 1:200 in RPMI containing 5% Luria Broth (LB) to improve bacterial growth (BD Difco, cat. no. 244620) to a concentration of ˜5×10^5 CFU (colony-forming units)/mL. […] Later, conjugates 16 and 17, and 20-25 were evaluated in RPMI 1640 medium (+) L-glutamine, (+) sodium bicarbonate, pH 7.4 (“RPMI B”; Gibco, cat. no. 11875-085) as has been described as a more physiologically-relevant media for susceptibility testing of antibacterial compounds. Dorschner R A et al., The mammalian ionic environment dictates microbial susceptibility to antimicrobial defense peptides. FASEB J. 20(1):35-42 (2017). Ninety-eight microliters of each cell suspension in MHB were added to test wells in a 96-well assay plate (Costar cat. no. 3370). A Beckman Multimek 96 liquid handling robot was used to dispense 2 μL of each 50× stock compound into the plate containing 98 μL of each strain in MHB (2% final solvent concentration). E. coli strains BW25113 and ATCC 25922 were run in the presence and absence of 50% heat-inactivated fetal bovine serum (FBS; Sigma, cat. no. F4135-100 mL). Plates were mixed by shaking then incubated at 37° C. overnight (16-20 h).

Assay [2] has as its system Pseudomonas aeruginosa PAO1. The experiment in a line: MIC assay (broth microdilution), Pa PAO1. The format is cell-based. To be noted: assay media RPMI A. The method, then:
as §1, §2

Assay [3] deals with Escherichia coli ATCC 25922. Put plainly: MIC assay (broth microdilution), Ec 25922. The following applies: assay media RPMI A; for MIC, Ec 25922 + FBS: 50% heat-inactivated FBS. The format is cell-based. On the procedure: as §1
(§3) Briefly, stock solutions of all antibacterial agents were prepared fresh in appropriate solvents (i.e. PBS, pH 7.4, DMSO, DI, etc.). Stock concentrations were made at 50× the highest final assay concentration and serially diluted 2-fold, 8 or 12 times in a 96-well PCR plate (VWR cat. no. 83007-374). Bacterial cell suspensions generated from MHA plate cultures were prepared in 0.85% saline and adjusted to ˜0.1 OD600 nm. […] Dorschner R A et al., The mammalian ionic environment dictates microbial susceptibility to antimicrobial defense peptides. FASEB J. 20(1):35-42 (2017). Ninety-eight microliters of each cell suspension in MHB were added to test wells in a 96-well assay plate (Costar cat. no. 3370). A Beckman Multimek 96 liquid handling robot was used to dispense 2 μL of each 50× stock compound into the plate containing 98 μL of each strain in MHB (2% final solvent concentration). E. coli strains BW25113 and ATCC 25922 were run in the presence and absence of 50% heat-inactivated fetal bovine serum (FBS; Sigma, cat. no. F4135-100 mL). Plates were mixed by shaking then incubated at 37° C. overnight (16-20 h).
In general terms: Broth dilution looks for growth in wells or tubes with falling amounts of substance.

For assay [4], the system named is Escherichia coli ATCC BAA-2469. The experiment in a line: MIC assay (broth microdilution), Ec 2469. In kind it is cell-based. To be noted: assay media RPMI A. On the procedure: as §1, §3
Assay [5] has as its system Escherichia coli BW25113 + pUC18-mcr-1. The experiment in a line: MIC assay (broth microdilution), Ec BW (mcr-1). In kind it is cell-based. The following applies: assay media RPMI A.
Source text: An mcr-1 expression plasmid was constructed (GenScript; Piscataway, N.J.) using the pUC18 high copy number plasmid (Yanisch-Perron, et al., 1985). A 1649-bp fragment was synthesized containing, in order from 5′ to 3′: EcoR1 restriction site (5′-GAATTC-3′), a ribosomal binding site (5′-AGGAGG-3′), a 5-bp native start codon upstream sequence (5′-TTCTC-3′) from the mcr-1-bearing plasmid pHNSHP45 (Liu, Y Y, et al., 2015; GenBank Accession #KP347127), the 1626-bp mcr-1 open reading frame with stop codon (“orf00073” of GenBank Accession #KP347127), and finally an Xba1 restriction site sequence (5′-TCTAGA-3′). […] The pUC18-mcr-1 plasmid was transformed into chemically-competent E. coli BW25113 (Coli Genetic Stock Center #7636) as described previously (Chung, et al., PNAS. 1989), recovered for 1 h shaking at 37° C. in Super Optimal broth with Catabolite repression (SOC) media and then aliquots were plated on Luria-Bertani (LB) media containing 100 μg/mL of carbenicillin. Putative transformant colonies were then verified in MIC assays.
as §1
Briefly, stock solutions of all antibacterial agents were prepared fresh in appropriate solvents (i.e. PBS, pH 7.4, DMSO, DI, etc.). Stock concentrations were made at 50× the highest final assay concentration and serially diluted 2-fold, 8 or 12 times in a 96-well PCR plate (VWR cat. no. 83007-374). Bacterial cell suspensions generated from MHA plate cultures were prepared in 0.85% saline and adjusted to ˜0.1 OD600 nm. […] Later, conjugates 16 and 17, and 20-25 were evaluated in RPMI 1640 medium (+) L-glutamine, (+) sodium bicarbonate, pH 7.4 (“RPMI B”; Gibco, cat. no. 11875-085) as has been described as a more physiologically-relevant media for susceptibility testing of antibacterial compounds. […]

Assay [6] has as its system Escherichia coli BW25113. The experiment in a line: MIC assay (broth microdilution), Ec BW. The format is cell-based. To be noted: assay media RPMI A; for MIC, Ec BW + FBS: 50% heat-inactivated FBS. The method, then:
as §1, §3

Assay [7] deals with Acinetobacter baumannii ATCC 19606. Put plainly: MIC assay (broth microdilution), Ab 19606. The following applies: assay media RPMI A. The format is cell-based. On the procedure:
as §1, §3

In assay [8] the test system is Pseudomonas aeruginosa ATCC 27853. The experiment in a line: MIC assay (broth microdilution), Pa 27853. The format is cell-based. To be noted: assay media RPMI A. On the procedure:
as §1
(§4) Briefly, stock solutions of all antibacterial agents were prepared fresh in appropriate solvents (i.e. PBS, pH 7.4, DMSO, DI, etc.). Stock concentrations were made at 50× the highest final assay concentration and serially diluted 2-fold, 8 or 12 times in a 96-well PCR plate (VWR cat. no. 83007-374). Bacterial cell suspensions generated from MHA plate cultures were prepared in 0.85% saline and adjusted to ˜0.1 OD600 nm. Next, cell suspensions were diluted 1:200 in RPMI containing 5% Luria Broth (LB) to improve bacterial growth (BD Difco, cat. no. 244620) to a concentration of ˜5×10^5 CFU (colony-forming units)/mL. […] Later, conjugates 16 and 17, and 20-25 were evaluated in RPMI 1640 medium (+) L-glutamine, (+) sodium bicarbonate, pH 7.4 (“RPMI B”; Gibco, cat. no. 11875-085) as has been described as a more physiologically-relevant media for susceptibility testing of antibacterial compounds. Dorschner R A et al., The mammalian ionic environment dictates microbial susceptibility to antimicrobial defense peptides. FASEB J. 20(1):35-42 (2017). […]

Assay [9] has as its system Acinetobacter baumannii ATCC 179778. Put plainly: MIC assay (broth microdilution), Ab 17978. The format is cell-based. The following applies: assay media RPMI A. On the procedure: as §1, §4
The test system of assay [10] is Acinetobacter baumannii ABS075-UW. Put plainly: MIC assay (broth microdilution), Ab ABS075. The format is cell-based. To be noted: assay media RPMI A. The method, then: as §1, §3
Assay [11] has as its target T1, recombinant mouse FcRn (Mus musculus, UniProt Q61559).
T1 construct: purchased R&D 6775-FC-050
T1 sequence (Q61559 22-297 limits assumed): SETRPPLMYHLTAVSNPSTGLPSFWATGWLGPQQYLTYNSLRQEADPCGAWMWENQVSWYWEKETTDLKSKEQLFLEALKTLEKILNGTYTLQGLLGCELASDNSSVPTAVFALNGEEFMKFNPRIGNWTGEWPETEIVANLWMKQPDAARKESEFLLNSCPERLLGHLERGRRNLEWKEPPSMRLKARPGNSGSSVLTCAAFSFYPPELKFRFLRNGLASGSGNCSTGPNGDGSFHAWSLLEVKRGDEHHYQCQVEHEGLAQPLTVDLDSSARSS
T1 sequence (P01887 21-119 partner): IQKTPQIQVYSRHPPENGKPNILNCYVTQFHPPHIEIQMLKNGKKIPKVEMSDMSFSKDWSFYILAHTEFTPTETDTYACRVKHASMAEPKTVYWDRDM
The experiment in a line: Binding of conjugates to FcRn (ELISA), mouse. The following applies: pH 6.25; 20 μg/mL starting concentration, 2-fold diluted. On the procedure:
96-well ELISA plates (Fisher, Cat. No. 12-565-136) were coated with 0.25 μg/well of recombinant mouse FcRn (R&D, Cat. No. 6775-FC-050) or recombinant human FcRn (R&D, Cat. No. 8639-FC-050) in carbonate-bicarbonate buffer (Sigma, Cat. No. C34041) at pH 6.25 overnight at 37° C. A pH of 6.25 was maintained during the complete experiment. Blocking was carried out with 5% skim milk in PBS with 0.05% Tween 20. Purified conjugates were added at 20 μg/mL starting concentration and serially 2-fold diluted in blocking buffer. For detection, HRP-labeled secondary anti-mouse IgG-HRP (GE Healthcare, Cat. No. NA931V) or anti-human IgG-HRP (GE Healthcare, Cat. No. NA933V) was used to detect the bound conjugates. Absorbance was measured at 450 nm with a 96-well microplate reader and data were analyzed using GraphPad Prism software, FIGS. 33A-33F.
Background: ELISA stands for enzyme-linked immunosorbent assay.

Bounds are passed on as bounds.

B1: Conjugate 26: "Conjugate of m-IgG2a(His)6 Fc-3(Int-13)"; mlgG2a(His)6 Fc (SEQ ID NO: 6), reduced hinge disulfides; DAR=2/Fc dimer (conjugate)
chain: PRGPTIKPCPPCKCPAPNLLGGPSVFIFPPKIKDVLMISLSPIVTCVVVDVSEDDPDVQISWFVNNVEVHTAQTQTHREDYNSTLRVVSALPIQHQDWMSGKEFKCKVNNKDLPAPIERTISKPKGSVRAPQVYVLPPPEEEMTKKQVTLTCMVTDFMPEDIYVEWTNNGKTELNYKNTEPVLDSDGSYFMYSKLRVEKKNWVERNSYSCSVVHEGLHNHHTTKSFSRTPGKHHHHHH
modifications: conjugated to Int-13 at hinge cysteines
notes: "Conjugate of m-IgG2a(His)6 Fc-3(Int-13)"; DAR=2/Fc dimer
As for B1, in assay [1], the “MIC, Ec BW 4X-12 (COL-R)” value was more than 128 µg/mL. Moreover, the “MIC Pa PAO1” value in assay [2] was found to be 64 µg/mL. Also, in assay [3], the “MIC, Ec 25922” value was more than 128 µg/mL and the “MIC, Ec 25922 + FBS” value was 128 µg/mL. Also, the “MIC, Ec 2469” value in assay [4] was determined as 32 µg/mL. Further, in assay [5], the “MIC, Ec BW (mcr-1)” value is more than 128 µg/mL. Besides, in assay [6], the “MIC, Ec BW” value was 16 µg/mL and the “MIC, Ec BW + FBS” value came out at 32 µg/mL. In addition, the “MIC Ab 19606” value in assay [7] was 128 µg/mL. Further, the “MIC Pa 27853” value in assay [8] worked out at 16 µg/mL. For the same molecule, the “MIC Ab 17978” value in [9] came out at 64 µg/mL. Moreover, the “MIC Ab AB5075” value in [10] was determined as 32 µg/mL.

B2: Conjugate 4 (conjugate)
chain: PRGPTIKPCPPCKCPAPNLLGGPSVFIFPPKIKDVLMISLSPIVTCVVVDVSEDDPDVQISWFVNNVEVHTAQTQTHREDYNSTLRVVSALPIQHQDWMSGKEFKCKVNNKDLPAPIERTISKPKGSVRAPQVYVLPPPEEEMTKKQVTLTCMVTDFMPEDIYVEWTNNGKTELNYKNTEPVLDSDGSYFMYSKLRVEKKNWVERNSYSCSVVHEGLHNHHTTKSFSRTPGKHHHHHH
modifications: cyclised or stapled
Take B2: the “MIC, Ec BW 4X-12 (COL-R)” value in [1] is more than 128 µg/mL. Besides, the “MIC Pa PAO1” value in [2] was 16 µg/mL. Also, in [3], the “MIC, Ec 25922” value is more than 128 µg/mL and the “MIC, Ec 25922 + FBS” value stood at 64 µg/mL. Besides, the “MIC, Ec 2469” value in assay [4] was more than 128 µg/mL. For the same molecule, in assay [5], the “MIC, Ec BW (mcr-1)” value was more than 128 µg/mL. For the same molecule, in assay [6], the “MIC, Ec BW” value came out at 32 µg/mL and the “MIC, Ec BW + FBS” value was 32 µg/mL. Further, the “MIC Ab 19606” value in assay [7] turned out to be 32 µg/mL. Also, the “binding to mouse FcRn (ELISA)” value in assay [11] is reported as “does not interfere with FcRn interaction”. Also, in assay [10], the “MIC Ab AB5075” value turned out to be 32 µg/mL.
